The data set has as its system fibrin (formed in the agarose plate from fibrinogen and thrombin).

Regarding “recombinant Desmodus rotundus salivary plasminogen activator alpha2 (DSPAα2) from transgenic T1 tobacco seeds, with C-terminal 6xHis tag and KDEL”, the fibrin degradation result is “recombinant proteins t-PA, DSPAα1 and DSPAα2 produced in this manner can degrade fibrin”.

Source of the values: patent US20160208274.
